Experimental findings from US20050064507A1, “Determining kinase specificity” (priority 2003, published 2005) are described below.

Assay [1] addresses SHP-1 phosphopeptide HAKASRTS-pS-KHKEDVYE (SEQ ID NO:294) (human). Put plainly: ELISA on phosphopeptides synthesized in microtiter wells. The note with it: scale: normalized. On the technique in general: ELISA stands for enzyme-linked immunosorbent assay.
Assay [2] addresses SHP-1 phosphopeptide PSEPGGVL-pS-FLDQINQR (SEQ ID NO:293) (human). The description is as above. The note with it: scale: normalized.
For assay [3], the target named is SHP-1 phosphopeptide RVILQGRD-pS-NIPGSDYI (SEQ ID NO:290) (human). The assay is described as above. The settings on record: scale: normalized.
Assay [4] deals with SHP-1 phosphopeptide AHAKASRT-pS-SKHKEDVY (SEQ ID NO:291) (human). The assay is described as above. The settings on record: scale: normalized.
For assay [5], the target named is SHP-1 phosphopeptide PLNCSDPT-pS-ERWYHGHM (SEQ ID NO:297) (human). Described as above. The settings on record: scale: normalized.
The target in assay [6] is SHP-1 phosphopeptide PWTFLVRE-pS-LSQPGDFV (SEQ ID NO:295) (human). The description is as above. The note with it: scale: normalized.
Assay [7] deals with SHP-1 phosphopeptide HGSFLARP-pS-RKNQGDFS (SEQ ID NO:300) (human). The assay is described as above. The note with it: scale: normalized.
The target of assay [8] is SHP-1 phosphopeptide MKNAHAKA-pS-RTSSKHKE (SEQ ID NO:289) (human). The assay is described as above. The note with it: scale: normalized.
Assay [9] deals with SHP-1 phosphopeptide KKKLEVLQ-pS-QKGQESEY (SEQ ID NO:292) (human). The assay is described as above. The settings on record: scale: normalized.
For assay [10], the target named is SHP-1 phosphopeptide ADKEKSKG-pS-LKRK (SEQ ID NO:298) (human). Described as above. The settings on record: scale: normalized.
The target of assay [11] is SHP-1 phosphopeptide KNQGDFSL-pS-VRVGDQVT (SEQ ID NO:296) (human). The description is as above. The note with it: scale: normalized.
In assay [12] the target is SHP-1 phosphopeptide LKGRGVHG-pS-FLARPSRK (SEQ ID NO:299) (human). Described as above. The note with it: scale: normalized.
For assay [13], the target named is LIMK-2 peptide … (SEQ ID NO:121) after phosphorylation by PKC-theta (human). Put plainly: pPKC Ab binding to biotinylated peptide on avidin-coated plate; signal after minus signal without PKC-theta.
Assay [14] addresses MLK3 peptide … (SEQ ID NO:76) after phosphorylation by PKC-theta (human). Described as above.
Assay [15] deals with LIMK-2 peptide … (SEQ ID NO:121) after phosphorylation by PKC-theta (human). Put plainly: pPKC Ab binding to biotinylated peptide on avidin-coated plate.
The target of assay [16] is LIMK-2 peptide … (SEQ ID NO:121) (human). Described as above.
The target of assay [17] is MLK3 peptide … (SEQ ID NO:76) after phosphorylation by PKC-theta (human). Described as above.
For assay [18], the target named is MLK3 peptide … (SEQ ID NO:76) (human). The assay is described as above.

As to “phospho-PKC motif antibody (Phospho-(Ser) PKC Substrate Antibody, Cell Signaling Technology)”, the Binding of pPKC antibody in [1] stood at 7; in assay [2], 9; in assay [3] it was 13; in assay [4], 12; in assay [5], 0; in assay [6] it was 5. Also, the Binding of pPKC antibody in assay [7] came out at 39; in assay [8] it was 18; in assay [9], 11; in assay [10], 100; in [11], 3; in assay [12], 54. Further, the results for the pPKC Ab Signal amount dependent on PKC phosphorylation in assay [13] and in assay [14] were 1.11 and 0.95, respectively. Also, the pPKC Ab Signal on peptide after exposure to PKC-theta phosphorylation in [15] came to 1.13; in assay [17], 1.02. For the same substance, the pPKC Ab Signal on peptide without exposure to PKC-theta in [16] is 0.02; in assay [18], 0.07.
